# Source: patent publication US20210275641A1 (SYNTHEKINE, published 2021)
# T1: IL-2 receptor of the human CD4 positive T cell clone 3F8 (expresses CD25 and CD122) (human, UniProt P01589 22-272; P14784 27-551)
# T1 sequence 1: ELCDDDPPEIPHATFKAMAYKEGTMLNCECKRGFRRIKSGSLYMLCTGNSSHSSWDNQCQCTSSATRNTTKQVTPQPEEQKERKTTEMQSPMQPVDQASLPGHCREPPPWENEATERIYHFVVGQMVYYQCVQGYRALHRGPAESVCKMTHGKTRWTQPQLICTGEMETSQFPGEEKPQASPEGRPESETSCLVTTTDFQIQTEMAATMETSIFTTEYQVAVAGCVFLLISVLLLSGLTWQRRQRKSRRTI
# T1 sequence 2: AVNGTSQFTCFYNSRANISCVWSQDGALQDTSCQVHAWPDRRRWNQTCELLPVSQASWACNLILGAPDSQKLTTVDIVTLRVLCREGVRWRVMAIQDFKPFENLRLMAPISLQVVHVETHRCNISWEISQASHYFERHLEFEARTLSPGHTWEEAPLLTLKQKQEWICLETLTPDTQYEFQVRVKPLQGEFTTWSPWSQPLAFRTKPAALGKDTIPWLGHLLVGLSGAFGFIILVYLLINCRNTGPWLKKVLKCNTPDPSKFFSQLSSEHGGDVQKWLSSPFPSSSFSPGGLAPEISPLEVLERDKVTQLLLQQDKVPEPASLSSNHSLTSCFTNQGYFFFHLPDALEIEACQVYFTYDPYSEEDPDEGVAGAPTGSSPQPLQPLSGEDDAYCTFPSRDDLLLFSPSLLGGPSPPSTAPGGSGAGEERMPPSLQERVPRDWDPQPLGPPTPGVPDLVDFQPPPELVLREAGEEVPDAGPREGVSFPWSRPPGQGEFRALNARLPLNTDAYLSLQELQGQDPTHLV
# T2: human high affinity trimeric IL-2 receptor (CD25/CD122/CD132) (human, UniProt P01589 22-272; P14784 27-551; P31785 23-369)
# T2 sequence 1: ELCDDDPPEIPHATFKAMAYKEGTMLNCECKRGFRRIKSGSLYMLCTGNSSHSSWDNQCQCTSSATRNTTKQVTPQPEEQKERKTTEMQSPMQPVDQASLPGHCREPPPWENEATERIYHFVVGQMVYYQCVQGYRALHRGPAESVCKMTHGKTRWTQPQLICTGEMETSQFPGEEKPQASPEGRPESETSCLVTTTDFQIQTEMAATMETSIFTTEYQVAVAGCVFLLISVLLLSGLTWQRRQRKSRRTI
# T2 sequence 2: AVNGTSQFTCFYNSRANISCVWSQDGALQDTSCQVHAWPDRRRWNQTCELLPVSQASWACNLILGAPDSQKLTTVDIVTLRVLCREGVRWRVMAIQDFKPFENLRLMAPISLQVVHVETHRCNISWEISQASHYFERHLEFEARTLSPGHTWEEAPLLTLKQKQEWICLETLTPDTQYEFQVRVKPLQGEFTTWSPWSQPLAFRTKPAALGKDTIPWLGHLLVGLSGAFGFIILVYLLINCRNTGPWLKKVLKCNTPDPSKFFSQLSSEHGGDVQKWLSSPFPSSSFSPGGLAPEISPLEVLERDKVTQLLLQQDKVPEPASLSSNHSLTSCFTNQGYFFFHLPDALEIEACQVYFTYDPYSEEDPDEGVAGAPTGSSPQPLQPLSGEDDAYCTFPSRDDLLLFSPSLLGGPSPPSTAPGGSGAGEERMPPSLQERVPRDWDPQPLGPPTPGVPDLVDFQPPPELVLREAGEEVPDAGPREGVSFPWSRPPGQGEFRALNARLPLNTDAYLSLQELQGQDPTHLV
# T2 sequence 3: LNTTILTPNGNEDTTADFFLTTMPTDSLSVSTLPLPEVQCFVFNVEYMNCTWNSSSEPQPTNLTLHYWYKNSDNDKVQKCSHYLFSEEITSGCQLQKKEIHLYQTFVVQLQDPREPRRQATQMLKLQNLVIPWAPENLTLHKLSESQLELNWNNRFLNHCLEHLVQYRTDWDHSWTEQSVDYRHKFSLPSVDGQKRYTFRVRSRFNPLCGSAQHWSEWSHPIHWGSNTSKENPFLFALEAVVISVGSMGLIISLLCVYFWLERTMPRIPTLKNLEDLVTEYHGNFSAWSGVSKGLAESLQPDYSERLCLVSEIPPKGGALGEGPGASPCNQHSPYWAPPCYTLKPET
# Target: T1, IL-2 receptor of the human CD4 positive …
# Assay: cell-based or functional assay
"IFNγ Production IC50 (pM), 3F8 cells","Proliferation IC50 (pM), 3F8 cells",Binder
21.2 pM,20.8 pM,"hIL2 mutein REV (L18R, Q22E, Q126V) (ligand) APTSSSTKKTQLQLEHLRLDLEMILNGINNYKNPKLTRMLTFKFYMPKKATELKHLQCLEEELKPLEEVLNLAQSKNFHLRPRDLISNINVIVLELKGSETTFMCEYADETATIVEFLNRWITFCVSIISTLT"
33.8 pM,68.4 pM,"hIL2 mutein REL (L18R, Q22E, Q126L) (ligand) APTSSSTKKTQLQLEHLRLDLEMILNGINNYKNPKLTRMLTFKFYMPKKATELKHLQCLEEELKPLEEVLNLAQSKNFHLRPRDLISNINVIVLELKGSETTFMCEYADETATIVEFLNRWITFCLSIISTLT"

# Target: T2, human high affinity trimeric IL-2 …
# Assay: cell-based or functional assay
"pSTAT5 ratio YT CD25/YT, dilution factor 2, lower table","pSTAT5 ratio YT CD25/YT, dilution factor 4, lower table","pSTAT5 ratio YT CD25/YT, dilution factor 8, lower table","pSTAT5 ratio YT CD25/YT, dilution factor 16, lower table","pSTAT5 ratio YT CD25/YT, dilution factor 32, lower table","pSTAT5 ratio YT CD25/YT, dilution factor 64, lower table","pSTAT5 ratio YT CD25/YT, dilution factor 128, lower table","pSTAT5 ratio YT CD25/YT, dilution factor 2, upper table","pSTAT5 ratio YT CD25/YT, dilution factor 4, upper table","pSTAT5 ratio YT CD25/YT, dilution factor 8, upper table",Binder
1,0.9,1.1,1.8,2.8,5,6.8,–,–,–,RSH (ligand) cytokine: APTSSSTKKTQLQLEHLRLDLSMILNGINNYKNPKLTRMLTFKFYMPKKATELKHLQCLEEELKPLEEVLNLAQSKNFHLRPRDLISNINVIVLELKGSETTFMCEYADETATIVEFLNRWITFCHSIISTLT
0.9,0.9,1.4,1.9,3.3,5.3,8,–,–,–,RVH (ligand) cytokine: APTSSSTKKTQLQLEHLRLDLVMILNGINNYKNPKLTRMLTFKFYMPKKATELKHLQCLEEELKPLEEVLNLAQSKNFHLRPRDLISNINVIVLELKGSETTFMCEYADETATIVEFLNRWITFCHSIISTLT
2.3,1.9,2.6,3.6,5.4,9.1,14.3,–,–,–,RTH (ligand) cytokine: APTSSSTKKTQLQLEHLRLDLTMILNGINNYKNPKLTRMLTFKFYMPKKATELKHLQCLEEELKPLEEVLNLAQSKNFHLRPRDLISNINVIVLELKGSETTFMCEYADETATIVEFLNRWITFCHSIISTLT
1.1,1.5,2.4,3.8,6,8.4,11.5,–,–,–,RIH (ligand) cytokine: APTSSSTKKTQLQLEHLRLDLIMILNGINNYKNPKLTRMLTFKFYMPKKATELKHLQCLEEELKPLEEVLNLAQSKNFHLRPRDLISNINVIVLELKGSETTFMCEYADETATIVEFLNRWITFCHSIISTLT
2.3,2.8,3.8,6.5,10.3,14.6,19,–,–,–,RRH (ligand) cytokine: APTSSSTKKTQLQLEHLRLDLRMILNGINNYKNPKLTRMLTFKFYMPKKATELKHLQCLEEELKPLEEVLNLAQSKNFHLRPRDLISNINVIVLELKGSETTFMCEYADETATIVEFLNRWITFCHSIISTLT
–,–,–,–,–,–,–,1.3,2.6,5.7,AEH (ligand) cytokine: APTSSSTKKTQLQLEHLALDLEMILNGINNYKNPKLTRMLTFKFYMPKKATELKHLQCLEEELKPLEEVLNLAQSKNFHLRPRDLISNINVIVLELKGSETTFMCEYADETATIVEFLNRWITFCHSIISTLT
–,–,–,–,–,–,–,1.5,3.5,7.2,GEH (ligand) cytokine: APTSSSTKKTQLQLEHLGLDLEMILNGINNYKNPKLTRMLTFKFYMPKKATELKHLQCLEEELKPLEEVLNLAQSKNFHLRPRDLISNINVIVLELKGSETTFMCEYADETATIVEFLNRWITFCHSIISTLT
2.1,2,2.6,3.6,5.2,7.7,13,–,–,–,RNH (ligand) cytokine: APTSSSTKKTQLQLEHLRLDLNMILNGINNYKNPKLTRMLTFKFYMPKKATELKHLQCLEEELKPLEEVLNLAQSKNFHLRPRDLISNINVIVLELKGSETTFMCEYADETATIVEFLNRWITFCHSIISTLT
0.9,2.2,3.4,5.5,8.7,11.8,10.5,–,–,–,RYH (ligand) cytokine: APTSSSTKKTQLQLEHLRLDLYMILNGINNYKNPKLTRMLTFKFYMPKKATELKHLQCLEEELKPLEEVLNLAQSKNFHLRPRDLISNINVIVLELKGSETTFMCEYADETATIVEFLNRWITFCHSIISTLT
–,–,–,–,–,–,–,0.9,1.2,1.2,MEH (ligand) cytokine: APTSSSTKKTQLQLEHLMLDLEMILNGINNYKNPKLTRMLTFKFYMPKKATELKHLQCLEEELKPLEEVLNLAQSKNFHLRPRDLISNINVIVLELKGSETTFMCEYADETATIVEFLNRWITFCHSIISTLT
2,2,2.7,3.9,6.3,10.6,16,–,–,–,RHH (ligand) cytokine: APTSSSTKKTQLQLEHLRLDLHMILNGINNYKNPKLTRMLTFKFYMPKKATELKHLQCLEEELKPLEEVLNLAQSKNFHLRPRDLISNINVIVLELKGSETTFMCEYADETATIVEFLNRWITFCHSIISTLT
1.7,1.8,2.1,2.2,2.9,4.4,7,–,–,–,RDH (ligand) cytokine: APTSSSTKKTQLQLEHLRLDLDMILNGINNYKNPKLTRMLTFKFYMPKKATELKHLQCLEEELKPLEEVLNLAQSKNFHLRPRDLISNINVIVLELKGSETTFMCEYADETATIVEFLNRWITFCHSIISTLT

# Same assay, conditions: not given
"pSTAT5 ratio YT CD25/YT, dilution factor 16, upper table","pSTAT5 ratio YT CD25/YT, dilution factor 32, upper table","pSTAT5 ratio YT CD25/YT, dilution factor 64, upper table","pSTAT5 ratio YT CD25/YT, dilution factor 128, upper table",Binder
9.7,14.1,16.6,17.9,AEH (ligand) cytokine: APTSSSTKKTQLQLEHLALDLEMILNGINNYKNPKLTRMLTFKFYMPKKATELKHLQCLEEELKPLEEVLNLAQSKNFHLRPRDLISNINVIVLELKGSETTFMCEYADETATIVEFLNRWITFCHSIISTLT
13.2,16.2,17.5,18.8,GEH (ligand) cytokine: APTSSSTKKTQLQLEHLGLDLEMILNGINNYKNPKLTRMLTFKFYMPKKATELKHLQCLEEELKPLEEVLNLAQSKNFHLRPRDLISNINVIVLELKGSETTFMCEYADETATIVEFLNRWITFCHSIISTLT
1.4,1.8,2.7,4.5,MEH (ligand) cytokine: APTSSSTKKTQLQLEHLMLDLEMILNGINNYKNPKLTRMLTFKFYMPKKATELKHLQCLEEELKPLEEVLNLAQSKNFHLRPRDLISNINVIVLELKGSETTFMCEYADETATIVEFLNRWITFCHSIISTLT
